± gives the uncertainty stated by the source.
B1: Androgen receptor, residues 557 to 632; numbered along this chain, P10275 (parent)
chain: QKTCLICGDEASGCHYGALTCGSCKVFFKRAAEGKQKYLCASRNDCTIDKFRRKNCPSCRLRKCYEAGMTLGARKL

Variants of: B1
Assay: abundance fitness (aPCA) (normalised: wild type 0, dead -1); higher = more abundant; growth selection in yeast, the domain comes from the species named
Conditions: Homo sapiens

**Q.** Which abundance fitness does the source give for QKTCLICGDEASGCHYGALTCGSCKVFFKREAEGKQKYLCASRNDCTIDKFRRKNCPSCRLRKCYEAGMTLGARKL [A31E] here?
**A.** Its abundance fitness is -0.093 ± 0.068.

**Q.** Which abundance fitness does the source give for QKTCLICGDEASGCHYGALTCGSCKVFFKRGAEGKQKYLCASRNDCTIDKFRRKNCPSCRLRKCYEAGMTLGARKL [A31G] here?
**A.** Its abundance fitness is -0.086 ± 0.045.

**Q.** With QKTCLICGDEASGCHYGALTCGSCKVFFKRIAEGKQKYLCASRNDCTIDKFRRKNCPSCRLRKCYEAGMTLGARKL [A31I] as the variant, how does the abundance fitness read?
**A.** Its abundance fitness is -0.387 ± 0.17.

**Q.** For QKTCLICGDEASGCHYGALTCGSCKVFFKRFAEGKQKYLCASRNDCTIDKFRRKNCPSCRLRKCYEAGMTLGARKL [A31F], which abundance fitness is on record?
**A.** The abundance fitness was -0.214 ± 0.12.

**Q.** For QKTCLICGDEASGCHYGALTCGSCKVFFKRHAEGKQKYLCASRNDCTIDKFRRKNCPSCRLRKCYEAGMTLGARKL [A31H], which abundance fitness is on record?
**A.** The abundance fitness was -0.102 ± 0.079.

**Q.** Which abundance fitness does the source give for QKTCLICGDEASGCHYGALTCGSCKVFFKRLAEGKQKYLCASRNDCTIDKFRRKNCPSCRLRKCYEAGMTLGARKL [A31L] here?
**A.** The abundance fitness was -0.225 ± 0.053.

**Q.** Which abundance fitness does the source give for QKTCLICGDEASGCHYGALTCGSCKVFFKRKAEGKQKYLCASRNDCTIDKFRRKNCPSCRLRKCYEAGMTLGARKL [A31K] here?
**A.** The abundance fitness was -0.627 ± 0.18.

**Q.** For QKTCLICGDEASGCHYGALTCGSCKVFFKRMAEGKQKYLCASRNDCTIDKFRRKNCPSCRLRKCYEAGMTLGARKL [A31M], which abundance fitness is on record?
**A.** The abundance fitness was -0.182 ± 0.082.

**Q.** With QKTCLICGDEASGCHYGALTCGSCKVFFKRNAEGKQKYLCASRNDCTIDKFRRKNCPSCRLRKCYEAGMTLGARKL [A31N] as the variant, how does the abundance fitness read?
**A.** Its abundance fitness is -0.144 ± 0.14.

**Q.** With QKTCLICGDEASGCHYGALTCGSCKVFFKRDAEGKQKYLCASRNDCTIDKFRRKNCPSCRLRKCYEAGMTLGARKL [A31D] as the variant, how does the abundance fitness read?
**A.** Its abundance fitness is -0.503 ± 0.15.

**Q.** With QKTCLICGDEASGCHYGALTCGSCKVFFKRCAEGKQKYLCASRNDCTIDKFRRKNCPSCRLRKCYEAGMTLGARKL [A31C] as the variant, how does the abundance fitness read?
**A.** The abundance fitness was -0.072 ± 0.062.

**Q.** For QKTCLICGDEASGCHYGALTCGSCKVFFKRRAEGKQKYLCASRNDCTIDKFRRKNCPSCRLRKCYEAGMTLGARKL [A31R], which abundance fitness is on record?
**A.** The abundance fitness was -0.486 ± 0.06.

**Q.** With QKTCLICGDEASGCHYGALTCGSCKVFFKRPAEGKQKYLCASRNDCTIDKFRRKNCPSCRLRKCYEAGMTLGARKL [A31P] as the variant, how does the abundance fitness read?
**A.** Its abundance fitness is -0.519 ± 0.17.

**Q.** With QKTCLICGDEASGCHYGALTCGSCKVFFKRVAEGKQKYLCASRNDCTIDKFRRKNCPSCRLRKCYEAGMTLGARKL [A31V] as the variant, how does the abundance fitness read?
**A.** Its abundance fitness is -0.128 ± 0.056.

**Q.** With QKTCLICGDEASGCHYGALTCGSCKVFFKRSAEGKQKYLCASRNDCTIDKFRRKNCPSCRLRKCYEAGMTLGARKL [A31S] as the variant, how does the abundance fitness read?
**A.** Its abundance fitness is -0.024 ± 0.059.

**Q.** Which abundance fitness does the source give for QKTCLICGDEASGCHYGALTCGSCKVFFKRTAEGKQKYLCASRNDCTIDKFRRKNCPSCRLRKCYEAGMTLGARKL [A31T] here?
**A.** The abundance fitness was 0.025 ± 0.064.

**Q.** Which abundance fitness does the source give for QKTCLICGDEASGCHYGALTCGSCKVFFKRQAEGKQKYLCASRNDCTIDKFRRKNCPSCRLRKCYEAGMTLGARKL [A31Q] here?
**A.** The abundance fitness was -0.075 ± 0.062.

**Q.** With QKTCLICGDEASGCHYGALTCGSCKVFFKYAAEGKQKYLCASRNDCTIDKFRRKNCPSCRLRKCYEAGMTLGARKL [R30Y] as the variant, how does the abundance fitness read?
**A.** The abundance fitness was -0.191 ± 0.063.

**Q.** For QKTCLICGDEASGCHYGALTCGSCKVFFKSAAEGKQKYLCASRNDCTIDKFRRKNCPSCRLRKCYEAGMTLGARKL [R30S], which abundance fitness is on record?
**A.** Its abundance fitness is -0.016 ± 0.049.

**Q.** With QKTCLICGDEASGCHYGALTCGSCKVFFKKAAEGKQKYLCASRNDCTIDKFRRKNCPSCRLRKCYEAGMTLGARKL [R30K] as the variant, how does the abundance fitness read?
**A.** The abundance fitness was 0.103 ± 0.087.

**Q.** With QKTCLICGDEASGCHYGALTCGSCKVFFKPAAEGKQKYLCASRNDCTIDKFRRKNCPSCRLRKCYEAGMTLGARKL [R30P] as the variant, how does the abundance fitness read?
**A.** Its abundance fitness is -0.395 ± 0.098.

**Q.** Which abundance fitness does the source give for QKTCLICGDEASGCHYGALTCGSCKVFFKQAAEGKQKYLCASRNDCTIDKFRRKNCPSCRLRKCYEAGMTLGARKL [R30Q] here?
**A.** Its abundance fitness is -0.029 ± 0.089.

**Q.** Which abundance fitness does the source give for QKTCLICGDEASGCHYGALTCGSCKVFFKAAAEGKQKYLCASRNDCTIDKFRRKNCPSCRLRKCYEAGMTLGARKL [R30A] here?
**A.** The abundance fitness was -0.094 ± 0.093.

**Q.** For QKTCLICGDEASGCHYGALTCGSCKVFFKIAAEGKQKYLCASRNDCTIDKFRRKNCPSCRLRKCYEAGMTLGARKL [R30I], which abundance fitness is on record?
**A.** Its abundance fitness is -0.067 ± 0.058.

**Q.** For QKTCLICGDEASGCHYGALTCGSCKVFFKEAAEGKQKYLCASRNDCTIDKFRRKNCPSCRLRKCYEAGMTLGARKL [R30E], which abundance fitness is on record?
**A.** The abundance fitness was 0.019 ± 0.14.

**Q.** For QKTCLICGDEASGCHYGALTCGSCKVFFKTAAEGKQKYLCASRNDCTIDKFRRKNCPSCRLRKCYEAGMTLGARKL [R30T], which abundance fitness is on record?
**A.** Its abundance fitness is 0.01 ± 0.065.

**Q.** Which abundance fitness does the source give for QKTCLICGDEASGCHYGALTCGSCKVFFKDAAEGKQKYLCASRNDCTIDKFRRKNCPSCRLRKCYEAGMTLGARKL [R30D] here?
**A.** Its abundance fitness is -0.066 ± 0.11.

**Q.** Which abundance fitness does the source give for QKTCLICGDEASGCHYGALTCGSCKVFFKHAAEGKQKYLCASRNDCTIDKFRRKNCPSCRLRKCYEAGMTLGARKL [R30H] here?
**A.** Its abundance fitness is 0.114 ± 0.074.

**Q.** Which abundance fitness does the source give for QKTCLICGDEASGCHYGALTCGSCKVFFKWAAEGKQKYLCASRNDCTIDKFRRKNCPSCRLRKCYEAGMTLGARKL [R30W] here?
**A.** The abundance fitness was -0.114 ± 0.17.

**Q.** Which abundance fitness does the source give for QKTCLICGDEASGCHYGALTCGSCKVFFKNAAEGKQKYLCASRNDCTIDKFRRKNCPSCRLRKCYEAGMTLGARKL [R30N] here?
**A.** Its abundance fitness is 0.014 ± 0.069.

**Q.** For QKTCLICGDEASGCHYGALTCGSCKVFFKLAAEGKQKYLCASRNDCTIDKFRRKNCPSCRLRKCYEAGMTLGARKL [R30L], which abundance fitness is on record?
**A.** Its abundance fitness is 0.099 ± 0.053.

**Q.** With QKTCLICGDEASGCHYGALTCGSCKVFFKVAAEGKQKYLCASRNDCTIDKFRRKNCPSCRLRKCYEAGMTLGARKL [R30V] as the variant, how does the abundance fitness read?
**A.** The abundance fitness was -0.066 ± 0.065.

**Q.** With QKTCLICGDEASGCHYGALTCGSCKVFFKFAAEGKQKYLCASRNDCTIDKFRRKNCPSCRLRKCYEAGMTLGARKL [R30F] as the variant, how does the abundance fitness read?
**A.** Its abundance fitness is 0.03 ± 0.052.

**Q.** Which abundance fitness does the source give for QKTCLICGDEASGCHYGALTCGSCKVFFWRAAEGKQKYLCASRNDCTIDKFRRKNCPSCRLRKCYEAGMTLGARKL [K29W] here?
**A.** Its abundance fitness is 0.035 ± 0.15.

**Q.** For QKTCLICGDEASGCHYGALTCGSCKVFFYRAAEGKQKYLCASRNDCTIDKFRRKNCPSCRLRKCYEAGMTLGARKL [K29Y], which abundance fitness is on record?
**A.** The abundance fitness was -0.148 ± 0.14.

**Q.** For QKTCLICGDEASGCHYGALTCGSCKVFFVRAAEGKQKYLCASRNDCTIDKFRRKNCPSCRLRKCYEAGMTLGARKL [K29V], which abundance fitness is on record?
**A.** The abundance fitness was -0.215 ± 0.08.

Source: the Human Domainome abundance scans (Beltran et al. 2025)
